Source: US6004757
Where no end group is shown, it is not given here.

Tests used:
[1] = target: chicken pp60^v-src (chicken)

GST-c-abl, sequence (P00519 whole entry): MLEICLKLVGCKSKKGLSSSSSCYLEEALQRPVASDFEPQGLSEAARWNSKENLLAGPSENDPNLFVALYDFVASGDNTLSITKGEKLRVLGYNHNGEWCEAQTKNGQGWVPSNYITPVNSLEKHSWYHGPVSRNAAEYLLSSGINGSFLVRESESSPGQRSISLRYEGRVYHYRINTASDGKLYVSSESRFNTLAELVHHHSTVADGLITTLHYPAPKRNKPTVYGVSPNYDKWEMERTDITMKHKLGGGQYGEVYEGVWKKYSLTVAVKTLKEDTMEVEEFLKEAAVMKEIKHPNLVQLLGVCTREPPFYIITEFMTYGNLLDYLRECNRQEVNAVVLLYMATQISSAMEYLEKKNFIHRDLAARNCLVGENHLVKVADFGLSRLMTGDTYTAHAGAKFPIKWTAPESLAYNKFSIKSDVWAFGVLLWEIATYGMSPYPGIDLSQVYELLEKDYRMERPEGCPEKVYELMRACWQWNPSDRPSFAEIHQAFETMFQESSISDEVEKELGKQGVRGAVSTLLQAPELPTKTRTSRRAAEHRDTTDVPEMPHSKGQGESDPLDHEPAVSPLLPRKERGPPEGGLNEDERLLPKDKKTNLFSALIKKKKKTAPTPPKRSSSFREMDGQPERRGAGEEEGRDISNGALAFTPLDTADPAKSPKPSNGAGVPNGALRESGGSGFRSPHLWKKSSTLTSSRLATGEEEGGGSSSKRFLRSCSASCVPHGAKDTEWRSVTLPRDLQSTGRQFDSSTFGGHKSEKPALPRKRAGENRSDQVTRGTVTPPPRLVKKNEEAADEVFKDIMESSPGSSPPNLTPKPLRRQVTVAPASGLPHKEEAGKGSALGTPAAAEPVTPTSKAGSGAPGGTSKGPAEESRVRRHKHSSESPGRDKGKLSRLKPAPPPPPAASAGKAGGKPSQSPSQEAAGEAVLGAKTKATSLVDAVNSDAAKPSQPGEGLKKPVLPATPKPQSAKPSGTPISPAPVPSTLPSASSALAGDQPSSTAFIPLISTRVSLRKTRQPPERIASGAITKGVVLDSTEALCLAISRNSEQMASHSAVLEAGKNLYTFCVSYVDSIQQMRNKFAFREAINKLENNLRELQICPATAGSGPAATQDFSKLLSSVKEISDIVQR

EAIYAAPFAKKK [synthetic abl optimal peptide …]
Km of phosphorylation of the peptide by the kinase (GST-c-abl): 4 µM

ARRPMSPKKKA [peptide Ala-Arg-Arg-Pro-Met-Ser-Pro-Lys-Lys-Lys-Ala]
Km (µM) of phosphorylation of the peptide by the kinase (GST-cyclin B/p33^cdc2): 2.4 µM
Km (µM) of phosphorylation of the peptide by the kinase (GST-cyclinA/p33^CDK2): 15 µM

IEKIGEGTYGVVYKGRHKTT (not fully specified) [synthetic peptide based upon the site of tyrosine phosphorylation on p33^cdc2 (Y15)]
Km (µM) of phosphorylation of the peptide by the kinase [1]: 139 µM
